In paper PMC11568203 one finds Kd data, which are given here for one substance.

Test [1] has as its target KLHDC10(41-C)-EloB/C (UniProt Q6PID8). The test is described as follows: SPR; Biacore T200; 10xHis-KLHDC10-EloB/C captured on a Ni-NTA chip; UB variants as analytes, 2 uM to 0.125 uM; 25 mM Tris, 200 mM NaCl, 0.1% Tween20, pH 7.4, 20 °C; multi-cycle kinetics, 1:1 binding model; two replicates.
Test [2] deals with KLHDC10^41-C-EloB/C with a 10X Histidine tag on EloC (SPR) (UniProt Q6PID8). The test is described as follows: SPR; Biacore T200; His-tagged KLHDC10 complex captured on Ni-NTA chip (about 300 RU); ubiquitin variants as analytes 2 uM to 0.125 uM, multi-cycle kinetics; 25 mM Tris, 200 mM NaCl, 0.1% Tween20, pH 7.4; 20 °C; 1:1 binding model. In general terms: Surface plasmon resonance follows binding to a sensor surface in real time, without labels.

Values joined by “and” are separate entries in the source; they are usually repeats but may differ in a detail not shown here. Equal entries are not always repeated.

As to “ubiquitin (from UniProt P0CG48 1-76) (natural protein)”, the Kd (in general, the concentration at which binding is half-saturated) is 319 nM and 393 nM in test [1]; 300 nM in test [2].
